Assay results as given in patent US10023484B2, “Use of peracetic acid/hydrogen peroxide and peroxide-reducing agents for treatment of drilling fluids, frac fluids, flowback water and disposal water” (Ecolab USA Inc., priority 2012, dated 2018).

Experiments:
[1] = POAA and H2O2 loss with CoMo peroxide-reducing agent (Example 20); format: physicochemical; conditions: 10 g CoMo
Excerpt: (§1) Various additional inorganic metals and metal compounds were further evaluated for use as peroxide decomposition catalysts (e.g. peroxide-reducing agents) according to the methods of the invention. The metals were provided as solid catalysts to POAA solutions.

[2] = POAA and H2O2 loss with NiW peroxide-reducing agent (Example 20); format: physicochemical; conditions: 10 g NiW
Excerpt: as §1

[3] = POAA and H2O2 loss with NiMo peroxide-reducing agent (Example 20); format: physicochemical; conditions: 10 g NiMo
Excerpt: as §1

[4] = POAA and H2O2 loss with Mo peroxide-reducing agent (Example 20); format: physicochemical; conditions: 10 g Mo
Excerpt: as §1

[5] = test system: produced water samples (planktonic bacteria); experiment: Planktonic kill study, ATP quantification assay; format: cell-based; conditions: PAA/H2O2 25 ppm
Protocol: Planktonic kill studies were performed as an evaluation of biocide efficiency for PAA/H2O2 and PAA/H2O2/Catalase applications. Briefly, produced water samples were used to test the kill efficiency of PAA/H2O2 at the following dosages: 25, 50, 75, 150 and 300 ppm PAA. Concentration of catalase was fixed at 1000 ppm. The contact time was set to 10 and 60 minutes. After contact time, bacterial enumeration was performed using ATP quantification assay. Bacterial enumeration was calculated at the end of the appropriate time and biocide efficacy determined by comparison to an untreated sample.

[6] = Hydrogen peroxide reduction by catalase in 2%, 3%, 5% peracid compositions, iodometric assay (Example 13); format: physicochemical
Protocol: The concentration of peracid compositions was evaluated to determine the peroxide-reducing capability of enzymes. A catalase enzyme was evaluated for efficacy in reducing hydrogen peroxide at varying concentrations under increasingly concentrated peracid compositions. The commercially-available peracid (POAA) composition EnviroSan (Ecolab, Inc., St. Paul, Minn.) was evaluated using catalase enzymes added to 2%, 3%, and 5% peracid compositions. The catalase enzymes were added to the POAA solution and gently stirred under ambient conditions. After the addition of catalase, the stirring was discontinued, and the samples were taken for iodometric assay.

[7] = Catalase (ES2000) amount needed in treated water source, iodometric titration (Example 15); format: physicochemical
Protocol: Field of use applications were analyzed to determine the amount of a peroxide-reducing enzyme necessary to obtain desired concentrations of both peracid and hydrogen peroxide in a treated water source. EnviroSan (POAA) peracid composition was added to water to reach the targeted POAA concentrations set forth in Table 18, and the concentration of both POAA and H2O2 were confirmed by iodometric titration. Then catalase (ES2000) was added to the solution, and the sample was stored under ambient conditions. The concentration of POAA and H2O2 were monitored by the iodometric conditions.

[8] = Field application of catalase (ES 2000) in pond water: room temperature, sunlight, shielded (Example 22); format: physicochemical
Protocol: A field of use application was analyzed to determine efficacy of the peroxide-reducing catalase enzyme in pond waters under ambient conditions. Catalase (ES 2000) was used in a pond water source (370000 barrel (bbl.)) to reduce/eliminate H2O2 in a POAA peracid composition. The pond water when sampled contained both POAA and H2O2. The treatments analyzed were based on established laboratory data, which at 1 ppm use level selectively eliminated H2O2 to zero within 4 hours. […] Therefore, 100 gram samples of the pond water were used to add various levels of either 1 ppm catalase (Table 33) or 2 ppm catalase (Table 34).
The samples were then stored at various conditions identified: ambient room temperature, outside under sunlight, outside shielded from sunlight. The level of hydrogen peroxide was assayed at various times (shown at 0 hours and 2 hours) to check the functionality of the catalase peroxide-reducing agent. As referred to in the Tables, the following measurements are set forth as follows: EP1 V (ml 0.05N Na2S2O3) and EP2 V (ml 0.05N Na2S2O3).

[9] = 2% POAA, 1500 ppm Catalase, 0 min.
[10] = 2% POAA, 1500 ppm Catalase, 6.5 min.
[11] = 3% POAA, 1500 ppm Catalase, 0 min.
[12] = 3% POAA, 1500 ppm Catalase, 6.5 min.
[13] = 3% POAA, 1500 ppm Catalase, 10 min.
[14] = 3% POAA, 1500 ppm Catalase, 15 min.
[15] = 3% POAA, 2500 ppm Catalase, 0 min.
[16] = 3% POAA, 2500 ppm Catalase, 6.5 min.
[17] = 3% POAA, 2500 ppm Catalase, 10 min.
[18] = 3% POAA, 2500 ppm Catalase, 15 min.
[19] = 5% POAA, 1500 ppm Catalase, 0 min.
[20] = 5% POAA, 1500 ppm Catalase, 6.5 min.
[21] = 0.5 ppm catalase, series starting at 14.6 ppm POAA, 0 hr
[22] = 0.5 ppm catalase, series starting at 14.6 ppm POAA, 1 hr
[23] = 0.5 ppm catalase, series starting at 14.6 ppm POAA, 2 hr
[24] = 0.5 ppm catalase, series starting at 14.6 ppm POAA, 3.6 hr
[25] = 0.5 ppm catalase, series starting at 31.1 ppm POAA, 0 hr
[26] = 0.5 ppm catalase, series starting at 31.1 ppm POAA, 1 hr
[27] = 0.5 ppm catalase, series starting at 31.1 ppm POAA, 2 hr
[28] = 0.5 ppm catalase, series starting at 31.1 ppm POAA, 3.6 hr
[29] = 1.0 ppm catalase, series starting at 14.8 ppm POAA, 0 hr
[30] = 1.0 ppm catalase, series starting at 14.8 ppm POAA, 1 hr
[31] = 1.0 ppm catalase, series starting at 14.8 ppm POAA, 2 hr
[32] = 1.0 ppm catalase, series starting at 14.8 ppm POAA, 3.6 hr
[33] = 1.0 ppm catalase, series starting at 30.1 ppm POAA, 0 hr
[34] = 1.0 ppm catalase, series starting at 30.1 ppm POAA, 1 hr
[35] = 1.0 ppm catalase, series starting at 30.1 ppm POAA, 2 hr
[36] = 1.0 ppm catalase, series starting at 30.1 ppm POAA, 3.6 hr
[37] = 1 ppm catalase, Ambient Room, Time 0.00 hr
[38] = 1 ppm catalase, Ambient Room, Time 2.00 hr
[39] = 1 ppm catalase, Outside shield from the sunlight, Time 0.00 hr
[40] = 1 ppm catalase, Outside shield from the sunlight, Time 2.00 hr
[41] = 1 ppm catalase, Outside under the sunlight, Time 0.00 hr
[42] = 1 ppm catalase, Outside under the sunlight, Time 2.00 hr
[43] = 2 ppm catalase, Ambient Room, Time 0.00 hr
[44] = 2 ppm catalase, Ambient Room, Time 2.00 hr
[45] = 2 ppm catalase, Outside shield from the sunlight, Time 0.00 hr
[46] = 2 ppm catalase, Outside shield from the sunlight, Time 2.00 hr
[47] = 2 ppm catalase, Outside under the sunlight, Time 0.00 hr
[48] = 2 ppm catalase, Outside under the sunlight, Time 2.00 hr

In the case of `OO` [H2O2], the “H2O2 Concentration” value ([1]; Time 0) is reported as 1615, the “H2O2 Concentration” value ([1]; Time 15) is reported as 1343 and the “H2O2 Concentration” value ([1]; Time 30) is reported as 1156. For the same molecule, the “H2O2 Concentration” value ([1]; Time 45) was 994.5, the “H2O2 Concentration” value ([1]; Time 60) was 841.5 and the “H2O2 Concentration” value ([2]; Time 0) was 1615. The “H2O2 Concentration” value ([2]; Time 15) was 1581, the “H2O2 Concentration” value ([2]; Time 30) was 1598 and the “H2O2 Concentration” value ([2]; Time 45) was 1615. For the same molecule, the “H2O2 Concentration” value ([2]; Time 60) was 1615, the “H2O2 Concentration” value ([3]; Time 0) was 1615 and the “H2O2 Concentration” value ([3]; Time 15) was 1581. For the same molecule, the “H2O2 Concentration” value ([3]; Time 30) was 1555.5, the “H2O2 Concentration” value ([3]; Time 45) was 1530 and the “H2O2 Concentration” value ([3]; Time 60) was 1496. For the same molecule, the “H2O2 Concentration” value ([4]; Time 0) was 1615, the “H2O2 Concentration” value ([4]; Time 15) was 1334.5 and the “H2O2 Concentration” value ([4]; Time 30) was 1181.5. For the same molecule, the “H2O2 Concentration” value ([4]; Time 45) was 986 and the “H2O2 Concentration” value ([4]; Time 60) was 841.5.
With Catalase the “increase of biocide efficiency by addition of 1000 ppm catalase” value ([5]; after 10 minutes) was 48%, the “increase of biocide efficiency by addition of 1000 ppm catalase” value ([5]; after 60 minutes) was 23% and the H2O2 [6, 9] was 1.36% H2O2. The POAA [6, 9] was 2.0% POAA, the H2O2 [6, 10] was 0.08% H2O2 and the POAA [6, 10] was 2.05% POAA. It also gave an H2O2 [6, 11] of 2.04% H2O2, a POAA [6, 11] of 3.0% POAA and an H2O2 [6, 12] of 0.33% H2O2. For the same molecule, the POAA [6, 12] was 2.97% POAA, the H2O2 [6, 13] was 0.23% H2O2 and the POAA [6, 13] was 2.83% POAA. The H2O2 [6, 14] was 0.21% H2O2, the POAA [6, 14] was 2.95% POAA and the H2O2 [6, 15] was 2.04% H2O2. For the same molecule, the POAA [6, 15] was 2.0% POAA, the H2O2 [6, 16] was 0.33% H2O2 and the POAA [6, 16] was 2.99% POAA. For the same molecule, the H2O2 [6, 17] was 0.23% H2O2, the POAA [6, 17] was 2.95% POAA and the H2O2 [6, 18] was 0.21% H2O3. The POAA [6, 18] was 2.87% POAA, the H2O2 [6, 19] was 3.40% H2O2 and the POAA [6, 19] was 5.0% POAA. The H2O2 [6, 20] was 3.81% H2O2, the POAA [6, 20] was 4.96% POAA and the “H2O2 (ppm)” value [7, 21] was 12.0 ppm. For the same molecule, the “POAA (ppm)” value [7, 21] was 14.6 ppm, the “H2O2 (ppm)” value [7, 22] was 7.5 ppm and the “POAA (ppm)” value [7, 22] was 15.0 ppm. The “H2O2 (ppm)” value [7, 23] was 6.5 ppm, the “POAA (ppm)” value [7, 23] was 14.3 ppm and the “H2O2 (ppm)” value [7, 24] was 1.8 ppm. The “POAA (ppm)” value [7, 24] was 14.2 ppm, the “H2O2 (ppm)” value [7, 25] was 22.8 ppm and the “POAA (ppm)” value [7, 25] was 31.1 ppm. For the same molecule, the “H2O2 (ppm)” value [7, 26] was 12.2 ppm, the “POAA (ppm)” value [7, 26] was 32.0 ppm and the “H2O2 (ppm)” value [7, 27] was 7.8 ppm. For the same molecule, the “POAA (ppm)” value [7, 27] was 29.2 ppm, the “H2O2 (ppm)” value [7, 28] was 3.4 ppm and the “POAA (ppm)” value [7, 28] was 30.6 ppm. The “H2O2 (ppm)” value [7, 29] was 12.6 ppm, the “POAA (ppm)” value [7, 29] was 14.8 ppm and the “H2O2 (ppm)” value [7, 30] was 3.7 ppm. For the same molecule, the “POAA (ppm)” value [7, 30] was 14.6 ppm, the “H2O2 (ppm)” value [7, 31] was 1.1 ppm and the “POAA (ppm)” value [7, 31] was 14.2 ppm. The “H2O2 (ppm)” value [7, 32] was 0.4 ppm, the “POAA (ppm)” value [7, 32] was 15.9 ppm and the “H2O2 (ppm)” value [7, 33] was 23.3 ppm. For the same molecule, the “POAA (ppm)” value [7, 33] was 30.1 ppm, the “H2O2 (ppm)” value [7, 34] was 7.6 ppm and the “POAA (ppm)” value [7, 34] was 31.0 ppm. The “H2O2 (ppm)” value [7, 35] was 2.3 ppm, the “POAA (ppm)” value [7, 35] was 29.6 ppm and the “H2O2 (ppm)” value [7, 36] was 0.0 ppm. For the same molecule, the “POAA (ppm)” value [7, 36] was 29.3 ppm, the H2O2 [8, 37] was 6.8 ppm and the POAA [8, 37] was 5.7 ppm. The H2O2 [8, 38] was 1.3 ppm, the POAA [8, 38] was 5.7 ppm and the H2O2 [8, 39] was 6.8 ppm. The POAA [8, 39] was 5.7 ppm, the H2O2 [8, 40] was 0.9 ppm and the POAA [8, 40] was 5.7 ppm. For the same molecule, the H2O2 [8, 41] was 6.8 ppm, the POAA [8, 41] was 5.7 ppm and the H2O2 [8, 42] was 6.8 ppm. For the same molecule, the POAA [8, 42] was 4.75 ppm, the H2O2 [8, 43] was 6.8 ppm and the POAA [8, 43] was 5.7 ppm. It also gave an H2O2 [8, 44] of 0.0 ppm, a POAA [8, 44] of 5.7 ppm and an H2O2 [8, 45] of 6.8 ppm. The POAA [8, 45] was 5.7 ppm, the H2O2 [8, 46] was 0.0 ppm and the POAA [8, 46] was 5.7 ppm. It also gave an H2O2 [8, 47] of 6.8 ppm, a POAA [8, 47] of 5.7 ppm and an H2O2 [8, 48] of 4.3 ppm. The POAA [8, 48] was 4.75 ppm.
